According to US20090252749A1:
Values joined by “and” are separate entries in the source; they are usually repeats but may differ in a detail not shown here. Equal values may be shown once.

Biological target: B7 protein on the antigen presenting cell (Daudi B cells)
Assay: cell-based or functional assay

EC50 (ng/mL), human IL-2 promoter mediated luciferase activity: 19.1 ng/mL and 21.5 ng/mL and 21.8 ng/mL
Lower Asymptote (CPS), human IL-2 promoter mediated luciferase activity: 27000 CPS and 30000 CPS and 29000 CPS
Upper Asymptote (CPS), human IL-2 promoter mediated luciferase activity: 81000 CPS and 85000 CPS and 88000 CPS
Substance: CTLA4^A29YL104E-Ig (Fc fusion)
